Laboratory results: patent publication US20240124857A1, “COMPOSITION FOR GUT HEALTH” (DUPONT NUTRITION BIOSCIENCES APS, priority 2021, published 2024)
Where a chain is given by its changes, count along the chain named. Names may count otherwise.

B1: CRC25089: Acid phosphatase (Class A), accession WP_217352265.1, SEQ ID NO:22 (protein, listed as Paraburkholderia bonniea)
chain: AGSDGFLTAETAPSSLAILPPPPAENTVAFLNDKANYEIGRSLKNDARVALAASDANCKNINAIFSSAFGREISEEKTPKLYRLLLGVLQDSHDHAMKSAKNHYMRVRPFVMYGDKTCTPEEDNKMKNTGSYPSGHASFGWAAALVLSEINPERTTEILRRGYDFGQSRVVCGAHWQSDVDNGRLMGAAVVADLHNNDKFIKALEAAKAEFKENTPGN
B2: CRC22104: GDA1/CD39 family enzyme, accession TAL58835.1, SEQ ID NO:7 (protein, listed as Legionella sp.)
chain: IEQDPCQEKQCMIVVDAGSTGSRLHFYTYDTDETNSPINIEEIWSKRIKPGISHVEANRSSIDAYLVTLLAGTPHSNHVPVYFYATAGMRLLPAAKQKLIYQEIKFWFAQQNQWRLMDAKTIYGSQEALYDWLAVNHQLGTLQSVQTKSVGVMDMGGASVQIVFPVQNNPDLKNNTLAEFNLYGQHIRLAVRSFLGLGQTEMSHQFLNYAPCFANNYPLPDGFLGEGDALSCVEEVASLMNGVHSVNKEIQPLLAANPVNIWYAIGGLSFLADNSVIHFNNYQLTNEQLLQQVDSKICHQEWDVLDEQFPNEEYLYQFCLLSAYYYALMVEGYGLLPNETINYLPSSQNLDWTIGVVLYPRLTVLQ
B3: CRC25100: Acid phosphatase (Class A), internal database, SEQ ID NO:24 (protein)
chain: GENSGFLSPETSPNSLEILPPPPSEGSIAFLNDKANYDIGHTLKNEGRLAQAVSDANYKNLTDAFSKAFGETISEQNTPALYSLLQNVLQDSHDFAMRAAKDHYKRVRPFVIYKDHTCTPAEDTKMAKTGSYPSGHASFGWATALVLSEINPARETEILKRGYEFGQSRVICGAHWQSDVDSGRIMGAAVVASLHNNSDFISALAKAKEEFRKK
modifications: environmental sample
B4: CRC25099: Acid phosphatase (Class A), accession WP_195761705.1, SEQ ID NO:23 (protein, listed as Pantoea sp.)
chain: LQSSGFLTAETAPDSLAILPPPPAENSVTFQSDKAQYEAGHVLRNVARTELASKDADYKNFGQAFSAAFGMEISESHTPVLYHLLSEVLQDSHDFAMRGAKDHYKRVRPFVIYKDSTCTPDKDKSMSTTGSYPSGHASFGWAAALILAEINPSRETEIIRRGYDFGESRVVCGAHWQSDVENGRIMGATVVASLHANAKFAELLSQAKNEFATLSAQDSK
B5: CRC25085: Acid phosphatase (Class A), accession WP_092747651.1, SEQ ID NO:21 (protein, listed as Acinetobacter boissieri)
chain: LEQSNSFLQLAQVPDSLAIVPAPPAYNSVDFLRDKAAYDQAKSLVGTERWKVAAEDADLSDANIGKPFSQALGIEISPQNTPITYEILRKLRTDAGNYATKAAKEHYMRLRPFMFFNSHTCTPNDEANLSKNGAYPSGHTTIGWSSALVLAEIRPERQNEILQRGYEYGQSRVICGVHWQSDVDAGRITGSAIVARLHADKAFTKMLEEAKQEIQRKTK
B6: CRC25084: Acid phosphatase (Class A), accession WP_088823167.1, SEQ ID NO:20 (protein, listed as Acinetobacter apis)
chain: ADSNNSFLQLNQVPDSLKIVPAPPAFNSVDFLRDKAAYDQARSLVGTARWQQAAVDADLSDANIGKSFSEAFGVEISPTNTPVTYEILRKLRTDAGGYATKTAKEHYMRMRPFVFFNSHTCTPNDEASLSKNGAYPSGHTTIGWSSALILAEIRPDRQNEILERGYQYGQSRVICGVHWQSDVDAGRITGSAIVARLHADKDFAKTLEDAKREIQKKIK
B7: CRC22110v8: single-site variant F205A of CRC22110 (SEQ ID NO: 9) (protein, listed as Gallaecimonas xiamenensis)
chain: ADKPACRAVFDAGSSGTRLFLYVQQEGGWQPWPGAKLGALADPVRQHQGPKAMAALAADLANSLEALRQDGPTNSEGQPRWQGFDWQQACRLQSVSVLATAGMRLAEQQDPVASVALWQEVQQALAGLLGPAVAIDARTLTGFEEGFYAWLAARARLGRSDMGIVEMGGASSQVAFPCPACDRADDAVQQVRLEGQTLDFYSYSALGLGQDEAPKVLGVPHACRYGAGVKDPNWQLGQCQAQLPLTLGRALKDPYNFQGQGQGGYRQVPTEKAGVKDWLLTGAFQYNTPDQLDSCCLNQGQCYQPSTACFRVAYLPLYLDSLGVDPHSPDLDVSWTLGAVLCRNEQCLAPSKPPCRWRKAGCLAPSVGDGRPEGRPGQQPGGVQHRQH
B8: CRC22110v9: single-site variant F205L of CRC22110 (SEQ ID NO: 9) (protein, listed as Gallaecimonas xiamenensis)
chain: B7 chain with A205L
B9: CRC22110v4: single-site variant L208A of CRC22110 (SEQ ID NO: 9) (protein, listed as Gallaecimonas xiamenensis)
chain: B7 chain with A205F, L208A
B10: CRC22110v10: single-site variant L206I of CRC22110 (SEQ ID NO: 9) (protein, listed as Gallaecimonas xiamenensis)
chain: B7 chain with A205F, L206I
B11: CRC22110v2: single-site variant L206A of CRC22110 (SEQ ID NO: 9) (protein, listed as Gallaecimonas xiamenensis)
chain: B7 chain with A205F, L206A
B12: CRC22110v3: single-site variant G207A of CRC22110 (SEQ ID NO: 9) (protein, listed as Gallaecimonas xiamenensis)
chain: B7 chain with A205F, G207A
B13: CRC22110v5: single-site variant G209A of CRC22110 (SEQ ID NO: 9) (protein, listed as Gallaecimonas xiamenensis)
chain: B7 chain with A205F, G209A

Columns and labels:
Assay type in all cases: biochemical
[1] = pH profile of enzymes on 1 mM ATP; details: 50 mM trisodium citrate/citric acid, 5 mM CaCl2, relative to the highest value
Method: The pH profile of additional enzymes of interest was assayed using 1 mM ATP, in 50 mM trisodium citrate/citric acid buffer with 5 mM CaCl2. Absorbance was read at 620 nm and all values were set relative to the highest one. Commercial potato apyrase was used as reference. […]

[2] = ATPase activity at 0.05 ppm enzyme on 0.1 mM ATP (absorbance 620 nm); details: for Activity on ATP (absorbance at 620 nm, blank subtracted), pH 5.0: 50 mM IVIES buffer pH 5; for Activity on ATP (absorbance at 620 nm, blank subtracted), pH 6.0: 50 mM IVIES buffer pH 6
Method: Enzyme activity towards ATP or ADP at pH 3 to 9: The ability of candidate enzymes to degrade ATP or ADP to AMP and free phosphate (Pi) was measured using a standard malachite green phosphate detection kit (Sigma Aldrich cat no. MAK307). The enzyme reactions were carried out in 96-well plates with a total volume of 150 μL and contained 250 μM of a substrate, 50 mM of a buffer, 5 mM CaCl2, and a variable concentration of enzyme. The substrate was ATP or ADP. The buffer was glycine (pH 3), acetate (pH 4, 4.5, 5), bis-Tris (pH 5.5, 6, 6.5), or Tris (pH 7, 8, 9). The concentration of enzyme varied from about 1 μg/mL to 1 ng/mL and was adjusted based on the activity of the enzyme so that the amount of phosphate released during the assay was with the dynamic range of the assay (5-100 μM phosphate). The enzyme concentration was determined by the absorbance at 280 nm and using the predicted molecular weight and molar extinction coefficient to calculate the concentration. The enzyme reaction was initiated by the addition of 15 μL enzyme with 135 μL of the other reaction components such that the final reaction composition was as previously described. The reaction was stopped after 5 min by mixing 80 μL of the reaction mixture with 20 μL of the malachite green working reagent. The malachite green working reagent was prepared according to the manufacturer's protocol by mixing 100 parts reagent A with 1 part reagent B. Phosphate standard solutions (0-80 μM) and a negative control reaction without enzyme were also mixed with the malachite green working reagent. All samples were tested in duplicate. The malachite green reaction mixture was allowed to rest at room temperature for 45-60 min and the absorbance at 620 nm was measured. Lastly, the absorbance of the phosphate standards were used to convert the absorbance readings of each sample into phosphate concentrations and the negative control was subtracted from each reaction.
Enzymes of interest were assayed against ATP substrate. The ATPase activity was measured at 0.05 ppm concentration in 50 mM IVIES buffer pH 6 and pH 5 with 0.1 mM ATP as substrate as described in Example 1. Commercial potato apyrase was used as reference. The absorbance at 620 nm was measured and the absorbance of a blank sample (water) was subtracted from each sample.

[3] = Relative activity on ATP of CRC22110 single-site variants; details: in comparison to CRC22110 wild type

| Activity on ATP (absorbance at 620 nm, blank subtracted), pH 5.0 [2] | Activity on ATP (absorbance at 620 nm, blank subtracted), pH 6.0 [2] | Molecule | Relative activity on ATP, pH 3 [1] | Relative activity on ATP, pH 3.5 [1] | Relative activity on ATP, pH 4 [1] | Relative activity on ATP, pH 4.5 [1] | Relative activity on ATP, pH 5 [1] | Relative activity on ATP, pH 5.5 [1] | Relative activity on ATP, pH 6 [1] | Relative activity on ATP, pH 6.5 [1] | Relative activity (%) on ATP [3] [%] |
| --- | --- | --- | --- | --- | --- | --- | --- | --- | --- | --- | --- |
| 0.24 | 0.05 | B1 | 0.8 | 1.0 | 0.9 | 0.9 | 0.8 | 0.7 | 0.3 | 0.2 | – |
| 0.05 | 0.10 | B2 | 0.0 | 0.0 | 0.0 | 0.3 | 0.8 | 0.9 | 1.0 | 1.0 | – |
| 1.11 | 0.90 | B3 | 0.0 | 0.0 | 0.1 | 0.4 | 0.8 | 1.0 | 1.0 | 0.7 | – |
| 1.05 | 0.93 | B4 | 0.0 | 0.1 | 0.3 | 0.7 | 0.8 | 1.0 | 0.8 | 0.5 | – |
| 0.23 | 0.20 | B5 | 0.5 | 0.6 | 0.8 | 0.9 | 0.9 | 1.0 | 0.8 | 0.9 | – |
| 0.20 | 0.17 | B6 | 0.4 | 0.6 | 0.6 | 0.9 | 0.9 | 1.0 | 1.0 | 0.9 | – |
| – | – | B7 | – | – | – | – | – | – | – | – | 68 |
| – | – | B8 | – | – | – | – | – | – | – | – | 68 |
| – | – | B9 | – | – | – | – | – | – | – | – | 74 |
| – | – | B10 | – | – | – | – | – | – | – | – | 16 |
| – | – | B11 | – | – | – | – | – | – | – | – | 60 |
| – | – | B12 | – | – | – | – | – | – | – | – | 60 |
| – | – | B13 | – | – | – | – | – | – | – | – | 16 |
